Data reported in patent US20030148283.

Molecular target: T1, Tma endonuclease V H116A H116A (Thermotoga maritima) (UniProt Q9X2H9)
T1 sequence: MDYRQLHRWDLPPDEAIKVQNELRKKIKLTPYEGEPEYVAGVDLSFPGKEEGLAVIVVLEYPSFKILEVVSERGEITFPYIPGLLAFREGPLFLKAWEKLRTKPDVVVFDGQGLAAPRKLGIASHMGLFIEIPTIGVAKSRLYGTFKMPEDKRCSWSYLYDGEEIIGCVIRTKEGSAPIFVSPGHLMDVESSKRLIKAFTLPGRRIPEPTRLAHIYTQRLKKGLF
Test: EMSA
Settings: deoxyinosine; MgCl2; bound about half as tightly as wt

In the case of nicked I/A product, the binding signal is reported as 0.5 fold of wt.
